Assay results as given in PMC4542545.

Each substance was assayed against taxol stabilized microtubules assembled from MAP-free tubulin from bovine brain (bovine) (UniProt Q6B856) (assay: co-sedimentation; 1.5 μM GFP-tagged TPPP/p25 with increasing concentrations of taxol stabilized MTs, 15 min at 37 °C, centrifugation; GFP fluorescence of pellets and supernatants; apparent Kd (likely a composite of MT binding and TPPP/p25 dimerization or oligomerization)).

Kd [nM] | Substance
1440 | GFP-tagged full-length TPPP/p25 (from UniProt O94811 1-219) (natural protein)
860 | GFP-tagged TPPP/p25 ΔN(49) (from UniProt O94811 50-219) (domain or fragment)
1750 | GFP-tagged TPPP/p25 ΔC(158) (from UniProt O94811 1-157) (domain or fragment)
